This note sets out measurements from patent US20200262928A1 (GREEN CROSS, published 2020).

Test [1] deals with human MSLN expressed on cancer cell surface (human) (UniProt Q13421). In words: flow cytometry on PL45 cells expressing MSLN, control antibody, PE-conjugated anti-human IgG detection.
Test [2] shares this target. The test is described as follows: flow cytometry on H226 cells expressing MSLN, control antibody, PE-conjugated anti-human IgG detection.
For test [3] the target is unchanged. In words: flow cytometry on Capan2 cells expressing MSLN, control antibody, PE-conjugated anti-human IgG detection. In general terms: In flow cytometry, cells or beads pass a laser one at a time.
For test [4] the target is unchanged. The test is described as follows: flow cytometry on AsPC1 cells expressing MSLN, control antibody, PE-conjugated anti-human IgG detection.
The target in the next test is T1, recombinant human MSLN (human, UniProt Q13421 296-580, limits assumed).
T1 construct: It was fixed to an anti-Penta His (HIS1K) sensor, so a His tag is implied; also called recombinant MSLN; mesothelin
T1 sequence (Q13421 other isoform, or with tags, fused parts or gaps limits assumed): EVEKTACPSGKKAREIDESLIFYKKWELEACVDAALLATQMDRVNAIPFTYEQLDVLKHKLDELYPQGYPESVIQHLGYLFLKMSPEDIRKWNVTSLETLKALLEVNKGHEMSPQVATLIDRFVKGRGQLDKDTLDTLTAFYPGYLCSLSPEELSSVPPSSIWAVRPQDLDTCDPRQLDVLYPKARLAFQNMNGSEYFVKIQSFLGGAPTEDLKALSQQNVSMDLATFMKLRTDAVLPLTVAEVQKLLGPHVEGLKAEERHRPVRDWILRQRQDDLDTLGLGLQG
In words: BLI (Octet), MSLN on anti-Penta His sensor, antibody 3.125-50 nM. As to the method:
Specifically, recombinant human MSLN was prepared at a concentration of 5 μg/ml in 1× kinetic buffer and used to treat a 96-well-plate at 200 μl/well. The MSLN after treatment was fixed to the anti-Penta His (HIS1K, Cat #18-5121, Fortebio) sensor.
Then, the 3 humanized anti-MSLN antibodies produced in accordance with Example 1 and the mouse human chimeric MI323 IgG1 clones were diluted to a concentration of 50, 25, 12.5, 6.25, or 3.125 nM in 1× kinetic buffer, and treatment therewith was performed at 200 μl/well. For the 1×kinetic buffer, one obtained by 10-fold dilution of 10×kinetic buffer (ForteBio, Cat #18-1092) with PBS was used.
The interaction between the MSLN fixed to the sensor and the antibody at several concentrations was analyzed to calculate antigen-antibody affinity, and the results are shown in Table 4 below.
(BLI is a label-free optical method that tracks binding on a fibre tip over time.)

Chain of human MSLN expressed on cancer cell surface (human) (Q13421 other isoform, or with tags, fused parts or gaps limits assumed): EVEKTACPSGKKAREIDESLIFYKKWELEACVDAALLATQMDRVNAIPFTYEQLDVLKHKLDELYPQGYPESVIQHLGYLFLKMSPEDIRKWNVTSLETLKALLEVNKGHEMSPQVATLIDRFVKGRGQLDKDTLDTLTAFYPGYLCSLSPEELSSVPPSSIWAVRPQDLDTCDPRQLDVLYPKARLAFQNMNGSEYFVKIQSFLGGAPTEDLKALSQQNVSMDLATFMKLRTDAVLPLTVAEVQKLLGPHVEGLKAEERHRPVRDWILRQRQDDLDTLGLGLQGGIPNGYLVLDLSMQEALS

On to hIgG (antibody), for which the MFI in test [1] was found to be 96.5; in test [2], 120; in test [3], 169; in test [4] it was 85.9.

B1: mouse/human chimeric MI323 IgG1 (antibody, V domains shown)
VH: EVQLQQSGPELVKPGTSVKISCKASGYSFTSYFIQWVKQRPGQGLEWIGWIFPGSGNTKYNEMFKGKATLAADTSSSTAYMQLSSLTSEDSAVYFCARSGGYQYYFDYWGQGTSVTVSS
VL: DIVMTQSHKFMSTSVGDRVSITCKASQDVSTAVAWYQQKPGQSPKLLIYSASYRYPGVPDRFTGSGSGTDFTFTISSVQAEDLALYYCQQHYSTPWTFGGGTKLEIKR
notes: Control antibody; also called mouse human chimeric MI323 IgG1 antibody; MI323 antibody
What is called Kd is the free concentration of one partner at which half of the binding sites on the other are occupied at equilibrium, for simple one-to-one binding. Usually koff stands for a measure of how fast the partners let go of each other. As a reminder, the kon is a measure of how fast the partners come together. For B1, in the test with recombinant human MSLN, the Kd was found to be 0.0286 nM, the koff came to 1.3e-05 s⁻¹ and the kon was 454000 M⁻¹ s⁻¹.

B2: HMI323VL-1/HMI323VH-3 IgG1 (antibody, V domains shown)
VH: EVQLVQSGAEVKKPGTSVKVSCKASGYSFTSYFIQWVRQAPGQGLEWIGWIFPGSGNTKYSQKFQGRVTITRDTSTSTAYMELSSLRSEDTAVYYCARSGGYQYYFDYWGQGTLVTVSS
VL: DIQMTQSPSSLSASVGDRVTITCRASQDVSTAVAWYQQKPGKAPKLLIYSASYRYPGVPSRFSGSGSGTDFTLTISSLQPEDFATYYCQQHYSTPWTFGGGTKLEIKR
notes: also called humanized MI323 IgG1
Regarding B2, in the test with recombinant human MSLN, the Kd turned out to be 0.0327 nM, the koff was 2.75e-05 s⁻¹ and the kon worked out at 842000 M⁻¹ s⁻¹.

B3: HMI323VL-1/HMI323VH-2 (antibody, human IgG1, kappa, V domains shown)
VH: QVQLVQSGAEVKKPGSSVKVSCKASGYSFTSYFISWVRQAPGQGLEWMGGIFPGSGNANYAQKFQGRVTITADESTSTAYMELSSLRSEDTAVYYCARSGGYQYYFDYWGQGTLVTVSS
VL: DIQMTQSPSSLSASVGDRVTITCRASQDVSTAVAWYQQKPGKAPKLLIYSASYRYPGVPSRFSGSGSGTDFTLTISSLQPEDFATYYCQQHYSTPWTFGGGTKLEIKR
notes: also called humanized MI323 IgG1 (VL-1/VH-2)
Consider B3, for which, in the test with recombinant human MSLN, the Kd was 0.273 nM, the koff was 0.000509 s⁻¹ and the kon turned out to be 1.86e+06 M⁻¹ s⁻¹.

B4: HMI323VL-1/HMI323VH-1 (antibody, human IgG1, kappa, V domains shown)
VH: QVQLVQSGAEVKKPGASVKVSCKASGYSFTSYFMHWVRQAPGQRLEWMGWIFPGNGNTKYSQKFQGRVTITRDTSASTAYMELSSLRSEDTAVYYCARSGGYQYYFDYWGQGTLVTVSS
VL: DIQMTQSPSSLSASVGDRVTITCRASQDVSTAVAWYQQKPGKAPKLLIYSASYRYPGVPSRFSGSGSGTDFTLTISSLQPEDFATYYCQQHYSTPWTFGGGTKLEIKR
notes: also called humanized MI323 IgG1 (VL-1/VH-1)
On to B4, for which, in the test with recombinant human MSLN, the Kd amounted to 0.139 nM, the koff turned out to be 9.25e-05 s⁻¹ and the kon worked out at 665000 M⁻¹ s⁻¹.
